From article PMC9481563, “Structural insights into the pSer/pThr dependent regulation of the SHP2 tyrosine phosphatase in insulin and CD28 signaling” (Nature Communications, 2022)

Molecular target: PTP1B catalytic domain, inactive C215S mutant (1-229 as printed) (human) (UniProt P18031)
Assay: fluorescence polarisation; competitive titration: labelled CF-ppIRS1 and protein both fixed (50-80% saturation), unlabelled competitor peptide varied; triplicates; Kd from cubic fit

PTP1B catalytic domain, inactive C215S mutant (1-229 as printed) (human), sequence (P18031 1-229 C215S): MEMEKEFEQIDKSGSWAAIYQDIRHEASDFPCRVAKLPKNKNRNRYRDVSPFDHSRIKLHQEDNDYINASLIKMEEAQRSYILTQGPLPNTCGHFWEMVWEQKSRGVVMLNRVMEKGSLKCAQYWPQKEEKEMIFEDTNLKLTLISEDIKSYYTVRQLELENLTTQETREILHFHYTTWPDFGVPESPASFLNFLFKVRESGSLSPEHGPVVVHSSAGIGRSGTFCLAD

Row | Substance | fold increase of binding over p0IRS1 | fold increase of binding over p0CD28
1 | ppIRS1, IRS1 peptide dually phosphorylated (pY632 + pS636) | 19 fold | 
2 | ppCD28, CD28 peptide dually phosphorylated (pY191 + pT195) |  | 2 fold
